Test results as given in paper PMC10206189, “Nanobody inhibitors of Plexin-B1 identify allostery in plexin–semaphorin interactions and signaling” (The Journal of Biological Chemistry, 2023).
Where two headings read alike, the source gives them in different places. Values belong to the binder of their own block, whether it stands above or below them.

B2: mouse Plexin-B1 (20–535)-6xHis (domain or fragment, UniProt Q8CJH3 20-535, looked up)
chain: LRSPLPAAFTANGTHLQHLARDPTTGTLYVGATNFLFQLSPGLQLEAVVSTGPVNDSRDCLPPVIPDECPQAQPTNNPNQLLLVSPEALVVCGSVHQGICELRSLGQIRQLLLRPERPGDTQYVAANDPAVSTVGLVAQGLVGEPLLFVGRGYTSRGVGGGIPPITTRALRPPDPQAAFSYEETAKLAVGRLSEYSHHFVSAFVRGASAYFLFLRRDLKAPSRAFRAYVSRVCLQDQHYYSYVELPLACQGGRYGLIQAAAVATSKEVARGDVLFAAFSSVAPPTVDWPLSASTGASGTSVLCAFPLDEVDQLANYTRDACYTREGRAENGTKVADIAYDVLSDCAQLPVDTPDAFPCGSDHTPSPMVSCVPLEATPILELPGVQLTAVAVTMEDGHTIAFLGDSQGQLHRVYLGPGRSAAPYSKQSIQPGSPVNRDLTFDGTFEHLYVATQTTLVKVPVAPCAQHLDCDSCLAHRDPYCGWCVLLGRCSRRSECSRDQGPEQWLWSFQPELGCLR
notes: mouse Plexin-B1, sema and PSI1 domains (D1-2); For crystallography the N-linked glycans were trimmed to a single N-acetylglucosamine with EndoH; also called mPlexin-B1; mouse Plexin-B1 domains 1 and 2; source: Expi293F, secreted, purified (Excel HisTrap, Superdex 200)

What was measured:
[1] = target: B2
[2] = target: T1, VHH15-Fc (huarizo); assay: BLI; Octet RED384, 25 °C, 1× Kinetics buffer; purified VHH-Fc captured on Protein G biosensors, mouse Plexin-B1 in solution (VHH14-Fc: 10-3.75 nM, 1800 s association, 7200 s dissociation; VHH15-Fc: 160-10 nM, 600 s, 510 s); global 1:1 fit; conditions: both partners purified
T1 construct: VHH cloned upstream of the Fc of human IgG1 (vector pHCMVi-Script HuIgG1 Fc); source: Expi293F, transfected; culture supernatant, and purified (HiTrap MabSelect, Superdex 200); not shown: Fc (human IgG1), C-terminal, kept

[3] = target: T2, Recombinant Sema4D (1–677) with C-terminal 6xHis-tag (human, UniProt Q92854 22-677); assay: BLI; competition assay, Octet RED384, 1× Kinetics buffer; biotinylated murine Plexin-B1 on streptavidin biosensors, 10 μg/ml human Sema4D with or without 100 nM VHH-Fc bound beforehand; conditions: both partners purified
T2 construct: signal peptide in the construct; human Sema4D, residues 1-677 cloned in pcDNA5 and expressed as a secreted protein; also called human Sema4D; source: Expi293F, purified as the Plexin-B1 constructs (Excel HisTrap, Superdex 200)
T2 sequence (looked up): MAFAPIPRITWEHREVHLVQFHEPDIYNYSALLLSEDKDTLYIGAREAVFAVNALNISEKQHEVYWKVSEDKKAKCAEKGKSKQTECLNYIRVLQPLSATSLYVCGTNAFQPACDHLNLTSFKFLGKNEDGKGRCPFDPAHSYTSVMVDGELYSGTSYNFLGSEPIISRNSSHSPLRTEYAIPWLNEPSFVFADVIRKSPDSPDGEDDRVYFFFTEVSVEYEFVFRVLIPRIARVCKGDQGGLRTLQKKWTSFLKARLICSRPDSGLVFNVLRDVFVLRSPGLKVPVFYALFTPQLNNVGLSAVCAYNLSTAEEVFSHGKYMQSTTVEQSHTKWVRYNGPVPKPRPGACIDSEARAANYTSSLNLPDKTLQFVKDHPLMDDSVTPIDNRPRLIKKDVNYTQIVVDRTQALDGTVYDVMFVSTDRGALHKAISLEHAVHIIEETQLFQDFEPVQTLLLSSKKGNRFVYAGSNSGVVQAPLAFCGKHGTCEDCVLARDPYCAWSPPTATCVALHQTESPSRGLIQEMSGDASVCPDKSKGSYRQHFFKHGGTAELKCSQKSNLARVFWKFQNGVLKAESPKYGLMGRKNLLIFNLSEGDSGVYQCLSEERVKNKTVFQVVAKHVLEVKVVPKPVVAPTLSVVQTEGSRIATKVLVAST

[4] = target: T3, VHH14-Fc (huarizo); assay: BLI; first phase of the competition assay: 100 nM VHH-Fc on biotinylated murine Plexin-B1 held on streptavidin biosensors; by the order of the results the VHH-Fcs were still in supernatants; conditions: one partner purified
T3 construct: VHH cloned upstream of the Fc of human IgG1 (vector pHCMVi-Script HuIgG1 Fc); source: Expi293F, transfected; culture supernatant, and purified (HiTrap MabSelect, Superdex 200); not shown: Fc (human IgG1), C-terminal, kept

[5] = target: T1, VHH15-Fc; assay: as above; conditions: one partner purified
[6] = target: B2; assay: crystal structure; VHH14:VHH15:mPlexin-B1 ternary complex; 15% PEG 6000, 0.1 M sodium citrate pH 5.5, 3% dextran sulphate, 18 °C; conditions: both partners purified
[7] = target: B2; assay: crystal structure; VHH15:mPlexin-B1 complex, EndoH-treated; 8% PEG 8000, 0.1 M sodium citrate pH 5.0, 1% dextran sulphate, 18 °C; conditions: both partners purified
[8] = target: T3, VHH14-Fc; assay: BLI; supernatants containing VHH-Fcs tested against mouse and human Plexin-B1; conditions: one partner purified
[9] = target: T1, VHH15-Fc; assay: as above; conditions: one partner purified

Binder: B2
Kd [2]: 37.5 nM

B4: biotinylated mouse Plexin-B1 (20–535)-Avi-6xHis (domain or fragment, UniProt Q8CJH3 20-535, looked up)
chain: LRSPLPAAFTANGTHLQHLARDPTTGTLYVGATNFLFQLSPGLQLEAVVSTGPVNDSRDCLPPVIPDECPQAQPTNNPNQLLLVSPEALVVCGSVHQGICELRSLGQIRQLLLRPERPGDTQYVAANDPAVSTVGLVAQGLVGEPLLFVGRGYTSRGVGGGIPPITTRALRPPDPQAAFSYEETAKLAVGRLSEYSHHFVSAFVRGASAYFLFLRRDLKAPSRAFRAYVSRVCLQDQHYYSYVELPLACQGGRYGLIQAAAVATSKEVARGDVLFAAFSSVAPPTVDWPLSASTGASGTSVLCAFPLDEVDQLANYTRDACYTREGRAENGTKVADIAYDVLSDCAQLPVDTPDAFPCGSDHTPSPMVSCVPLEATPILELPGVQLTAVAVTMEDGHTIAFLGDSQGQLHRVYLGPGRSAAPYSKQSIQPGSPVNRDLTFDGTFEHLYVATQTTLVKVPVAPCAQHLDCDSCLAHRDPYCGWCVLLGRCSRRSECSRDQGPEQWLWSFQPELGCLR
modifications: biotin on the Avi-tag (BirA, in vitro)
notes: the Avi-tag stands between the C terminus of the fragment and the 6xHis-tag; source: Expi293F, secreted, purified as the unmodified version; biotinylated in vitro with BirA
binding result [4]: binds
binding result [5]: binds

B5: VHH17 (VHH)
VHH: QVQLQESGGGLVQAGGSLRLSCVAAGIPFSAYAMSWYRQAPGKQRDHIATVSSGGTTYYADSVKGRFTISRDNAKNTVYLQMNSLKPEDTAVYFCNTEFALGNWGQGTQVTVSA
binding result [1]: binds

B8: human Plexin-B1 (20–535) (domain or fragment, UniProt O43157 20-535, looked up)
chain: LQPLPPTAFTPNGTYLQHLARDPTSGTLYLGATNFLFQLSPGLQLEATVSTGPVLDSRDCLPPVMPDECPQAQPTNNPNQLLLVSPGALVVCGSVHQGVCEQRRLGQLEQLLLRPERPGDTQYVAANDPAVSTVGLVAQGLAGEPLLFVGRGYTSRGVGGGIPPITTRALWPPDPQAAFSYEETAKLAVGRLSEYSHHFVSAFARGASAYFLFLRRDLQAQSRAFRAYVSRVCLRDQHYYSYVELPLACEGGRYGLIQAAAVATSREVAHGEVLFAAFSSAAPPTVGRPPSAAAGASGASALCAFPLDEVDRLANRTRDACYTREGRAEDGTEVAYIEYDVNSDCAQLPVDTLDAYPCGSDHTPSPMASRVPLEATPILEWPGIQLTAVAVTMEDGHTIAFLGDSQGQLHRVYLGPGSDGHPYSTQSIQQGSAVSRDLTFDGTFEHLYVMTQSTLLKVPVASCAQHLDCASCLAHRDPYCGWCVLLGRCSRRSECSRGQGPEQWLWSFQPELGCLQ
notes: human Plexin-B1, sema and PSI1 domains; also called hPlexin-B1; source: Expi293F, secreted, purified (Excel HisTrap, Superdex 200)
binding result [8]: no binding
binding result [9]: no binding

B9: VHH16 (VHH)
VHH: QVQLQESGGDLVQAGGSLRLSCEVSGSSFDIYHWAWYRQVPGKEREWVATAYSAGTTHYADSVKGRFTISRDNAKNTVYLQMNSLIPEDTAVYFCNANIYWGRGTQVTVSA
binding result [1]: binds

The next lines start with the values.

binding result [1]: binds
B1: VHH13 (VHH)
VHH: QVQLQESGGGLVQAGGSLRLSCVASGFTFSSYAMGWYRRTPGNQQQLVATVSSSGTTYYGDSVKGRFTISRDNAKKTVYLQMNSLKPEDTAVYYCWRIGYWGQGTQVTVSA

binding result [3]: binds
B3: biotinylated mouse Plexin-B1 (20–535)-Avi-6xHis (domain or fragment, UniProt Q8CJH3 20-535, looked up)
chain: LRSPLPAAFTANGTHLQHLARDPTTGTLYVGATNFLFQLSPGLQLEAVVSTGPVNDSRDCLPPVIPDECPQAQPTNNPNQLLLVSPEALVVCGSVHQGICELRSLGQIRQLLLRPERPGDTQYVAANDPAVSTVGLVAQGLVGEPLLFVGRGYTSRGVGGGIPPITTRALRPPDPQAAFSYEETAKLAVGRLSEYSHHFVSAFVRGASAYFLFLRRDLKAPSRAFRAYVSRVCLQDQHYYSYVELPLACQGGRYGLIQAAAVATSKEVARGDVLFAAFSSVAPPTVDWPLSASTGASGTSVLCAFPLDEVDQLANYTRDACYTREGRAENGTKVADIAYDVLSDCAQLPVDTPDAFPCGSDHTPSPMVSCVPLEATPILELPGVQLTAVAVTMEDGHTIAFLGDSQGQLHRVYLGPGRSAAPYSKQSIQPGSPVNRDLTFDGTFEHLYVATQTTLVKVPVAPCAQHLDCDSCLAHRDPYCGWCVLLGRCSRRSECSRDQGPEQWLWSFQPELGCLR
modifications: biotin on the Avi-tag (BirA, in vitro)
notes: as for B4

binding result [6]: binds
B6: VHH14-6xHis (VHH)
VHH: QVQLQESGGGLVQAGGSLRLSCAASGFTLGYYAIGWFRQAPGKEREEVSCINASGGSTFYEDSVKGRFTISRDNAKNTVFLQMNRLKPEDTAVYYCAAACEVVAVGYWGQGTQVTVSA
notes: VHH14

binding result [7]: binds
B7: VHH15-6xHis (VHH)
VHH: QVQLQESGGGLVQPGGSLRLSCAASGFRLDYYAIGWFRQAPGKEREGVLCISSSGGSINYADSVKGRFTISRDNAKNTVYLQMNSLKPEDTAVYYCGASSYNTQRAECYGMDYWGKGTQVTVSA
notes: VHH15; not shown: His6, C-terminal, kept
